Measurements published in US20160031996A1 (CSL, published 2016).
One block for each molecule: values may come before it.

Legend:
[1] = target: human IL-3Rα E51Q/S59A/P88T triple mutant, full length (human) (UniProt P26951); assay: flow cytometry, MFI normalised to WT
[2] = target: human IL-3Rα E51Q/P88T double mutant, full length (human) (UniProt P26951); assay: flow cytometry, MFI normalised to WT
[3] = target: human IL-3Rα E51Q/S59A double mutant, full length (human) (UniProt P26951); assay: flow cytometry, MFI normalised to WT
[4] = target: human IL-3Rα S59A/P88T double mutant, full length (human) (UniProt P26951); assay: flow cytometry, MFI normalised to WT
[5] = target: T1, full length human IL-3Rα, wild type (human, UniProt P26951 19-378); assay: flow cytometry, MFI normalised to WT (reference, set as 100%)
T1 construct: expressed in 293F cells; also called WT
T1 sequence: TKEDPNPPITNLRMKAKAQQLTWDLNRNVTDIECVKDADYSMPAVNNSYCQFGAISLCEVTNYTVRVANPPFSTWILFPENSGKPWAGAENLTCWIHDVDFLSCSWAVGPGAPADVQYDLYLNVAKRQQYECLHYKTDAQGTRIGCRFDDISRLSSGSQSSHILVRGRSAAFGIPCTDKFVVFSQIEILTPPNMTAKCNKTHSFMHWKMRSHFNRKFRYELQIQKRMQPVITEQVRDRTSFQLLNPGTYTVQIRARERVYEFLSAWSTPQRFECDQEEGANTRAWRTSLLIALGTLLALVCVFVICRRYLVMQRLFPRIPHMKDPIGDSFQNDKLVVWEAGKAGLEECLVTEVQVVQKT
Experimental: Median fluorescence intensity (MFI) of each antibody was determined for WT IL-3Rα and for each IL-3Rα mutant. The MFI of WT IL-3Rα staining for each antibody was set as 100% then the MFI of each mutant was normalized to a percent of WT staining.

human IL-3 = target: T2, human IL-3 (human, UniProt P08700 20-152); assay: flow cytometry, 293F cells expressing mutant IL-3Rα and CD131
T2 sequence (looked up): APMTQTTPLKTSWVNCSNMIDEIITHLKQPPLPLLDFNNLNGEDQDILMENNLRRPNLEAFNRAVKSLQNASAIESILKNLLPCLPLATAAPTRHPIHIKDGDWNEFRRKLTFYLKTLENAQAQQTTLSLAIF
Experimental: STAT5 activity was measured by flow cytometry after intracellular staining with a phosphoSTAT5 antibody (pSTAT5).

MFI as percent of WT staining [1]: 32.7 % of WT MFI | MFI as percent of WT staining [2]: 70.1 % of WT MFI | MFI as percent of WT staining [3]: 87 % of WT MFI | MFI as percent of WT staining [4]: 95.6 % of WT MFI | MFI as percent of WT staining [5]: 100 % of WT MFI
Molecule: anti-human IL-3Rα monoclonal antibody 9F5

binding result (human IL-3): binds
B3: human IL-3Rα S59A/P88T double mutant, full length (receptor)
chain: TKEDPNPPITNLRMKAKAQQLTWDLNRNVTDIECVKDADYAMPAVNNSYCQFGAISLCEVTNYTVRVANTPFSTWILFPENSGKPWAGAENLTCWIHDVDFLSCSWAVGPGAPADVQYDLYLNVAKRQQYECLHYKTDAQGTRIGCRFDDISRLSSGSQSSHILVRGRSAAFGIPCTDKFVVFSQIEILTPPNMTAKCNKTHSFMHWKMRSHFNRKFRYELQIQKRMQPVITEQVRDRTSFQLLNPGTYTVQIRARERVYEFLSAWSTPQRFECDQEEGANTRAWRTSLLIALGTLLALVCVFVICRRYLVMQRLFPRIPHMKDPIGDSFQNDKLVVWEAGKAGLEECLVTEVQVVQKT

binding result (human IL-3): binds
B4: human IL-3Rα E51Q/S59A/P88T triple mutant, full length (receptor)
chain: TKEDPNPPITNLRMKAKAQQLTWDLNRNVTDIQCVKDADYAMPAVNNSYCQFGAISLCEVTNYTVRVANTPFSTWILFPENSGKPWAGAENLTCWIHDVDFLSCSWAVGPGAPADVQYDLYLNVAKRQQYECLHYKTDAQGTRIGCRFDDISRLSSGSQSSHILVRGRSAAFGIPCTDKFVVFSQIEILTPPNMTAKCNKTHSFMHWKMRSHFNRKFRYELQIQKRMQPVITEQVRDRTSFQLLNPGTYTVQIRARERVYEFLSAWSTPQRFECDQEEGANTRAWRTSLLIALGTLLALVCVFVICRRYLVMQRLFPRIPHMKDPIGDSFQNDKLVVWEAGKAGLEECLVTEVQVVQKT

Continued, molecule first:

B1: human IL-3Rα E51Q/S59A double mutant, full length (receptor)
chain: TKEDPNPPITNLRMKAKAQQLTWDLNRNVTDIQCVKDADYAMPAVNNSYCQFGAISLCEVTNYTVRVANPPFSTWILFPENSGKPWAGAENLTCWIHDVDFLSCSWAVGPGAPADVQYDLYLNVAKRQQYECLHYKTDAQGTRIGCRFDDISRLSSGSQSSHILVRGRSAAFGIPCTDKFVVFSQIEILTPPNMTAKCNKTHSFMHWKMRSHFNRKFRYELQIQKRMQPVITEQVRDRTSFQLLNPGTYTVQIRARERVYEFLSAWSTPQRFECDQEEGANTRAWRTSLLIALGTLLALVCVFVICRRYLVMQRLFPRIPHMKDPIGDSFQNDKLVVWEAGKAGLEECLVTEVQVVQKT
binding result (human IL-3): binds

B2: human IL-3Rα E51Q/P88T double mutant, full length (receptor)
chain: TKEDPNPPITNLRMKAKAQQLTWDLNRNVTDIQCVKDADYSMPAVNNSYCQFGAISLCEVTNYTVRVANTPFSTWILFPENSGKPWAGAENLTCWIHDVDFLSCSWAVGPGAPADVQYDLYLNVAKRQQYECLHYKTDAQGTRIGCRFDDISRLSSGSQSSHILVRGRSAAFGIPCTDKFVVFSQIEILTPPNMTAKCNKTHSFMHWKMRSHFNRKFRYELQIQKRMQPVITEQVRDRTSFQLLNPGTYTVQIRARERVYEFLSAWSTPQRFECDQEEGANTRAWRTSLLIALGTLLALVCVFVICRRYLVMQRLFPRIPHMKDPIGDSFQNDKLVVWEAGKAGLEECLVTEVQVVQKT
binding result (human IL-3): binds
